T1: PUF4 RNA-binding domain (Saccharomyces cerevisiae, UniProt P25339 537-888)
T1 sequence: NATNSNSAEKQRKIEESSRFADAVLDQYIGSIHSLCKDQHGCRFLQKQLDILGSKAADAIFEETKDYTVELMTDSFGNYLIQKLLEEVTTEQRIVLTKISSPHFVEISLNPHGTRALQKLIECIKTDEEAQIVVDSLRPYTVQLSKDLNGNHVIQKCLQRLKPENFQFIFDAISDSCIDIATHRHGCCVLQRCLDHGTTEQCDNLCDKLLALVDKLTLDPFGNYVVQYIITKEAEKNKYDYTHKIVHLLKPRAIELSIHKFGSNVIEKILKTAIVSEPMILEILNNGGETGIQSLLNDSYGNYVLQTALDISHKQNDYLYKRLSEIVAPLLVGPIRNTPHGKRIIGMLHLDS

B1: Id_ii_S1_P4E.3_K4.2_C4.2_[C-2A]_[T-1C]_H4.2_A4.1_F4.1_T4.2_[G10A]_[T11A] (ssRNA)
RNA: UCUCUUACUAUAUAUUAAAUCUCUU
B2: Id_ii_S1_P4E.3_K4.2_C4.2_[C-2A]_[T-1C]_H4.2_A4.1_F4.1_T4.2_[G10T] (ssRNA)
RNA: UCUCUUACUAUAUAUUAUUUCUCUU
B3: Id_ii_S1_P4E.3_K4.2_C4.2_[T-1G]_H4.2_A4.1_F4.1_T4.2_[T11C] (ssRNA)
RNA: UCUCUUCGUAUAUAUUAGCUCUCUU
B4: Id_ii_S1_P4E.3_K4.2_C4.2_[C-2A]_H4.2_A4.1_F4.1_T4.2_[G10T] (ssRNA)
RNA: UCUCUUAUUAUAUAUUAUUUCUCUU
B5: Id_ii_S1_P4E.3_K4.2_C4.2_[C-2A]_H4.2_A4.1_F4.1_T4.2_[G10C]_[T11C] (ssRNA)
RNA: UCUCUUAUUAUAUAUUACCUCUCUU
B6: Id_ii_S1_P4E.3_K4.2_C4.2_[T-1C]_H4.2_A4.1_F4.1_T4.2_[G10A]_[T11A] (ssRNA)
RNA: UCUCUUCCUAUAUAUUAAAUCUCUU
B7: Id_ii_S1_P4E.3_K4.2_C4.2_[C-2A]_[T-1C]_H4.2_A4.1_F4.1_T4.2_[G10A] (ssRNA)
RNA: UCUCUUACUAUAUAUUAAUUCUCUU
B8: Id_ii_S1_P4E.3_K4.2_C4.2_[T-1G]_H4.2_A4.1_F4.1_T4.2 (ssRNA)
RNA: UCUCUUCGUAUAUAUUAGUUCUCUU
B9: Ib_S1_P4E.1_K4.1_C4.1_H4.1_[A4T]_A4.1_[A6C]_F4.1_T4.1 (ssRNA)
RNA: UCUCUUUGUUUCUUAUCUCUU
B10: Id_ii_S1_P4E.3_K4.2_C4.2_[T-1C]_H4.2_A4.1_F4.1_T4.2_[G10A]_[T11C] (ssRNA)
RNA: UCUCUUCCUAUAUAUUAACUCUCUU
B11: Id_ii_S1_P4E.3_K4.2_C4.2_[C-2A]_[T-1A]_H4.2_A4.1_F4.1_T4.2_[G10T] (ssRNA)
RNA: UCUCUUAAUAUAUAUUAUUUCUCUU
B12: Id_ii_S1_P4E.3_K4.2_C4.2_[C-2A]_H4.2_A4.1_F4.1_T4.2_[G10C] (ssRNA)
RNA: UCUCUUAUUAUAUAUUACUUCUCUU
B13: Id_ii_S1_P4E.3_K4.2_C4.2_[T-1C]_H4.2_A4.1_F4.1_T4.2_[G10A] (ssRNA)
RNA: UCUCUUCCUAUAUAUUAAUUCUCUU
B14: Id_ii_S1_P4E.3_K4.2_C4.2_[C-2A]_H4.2_A4.1_F4.1_T4.2_[G10C]_[T11A] (ssRNA)
RNA: UCUCUUAUUAUAUAUUACAUCUCUU
B15: Id_ii_S1_P4E.3_K4.2_C4.2_[C-2A]_H4.2_A4.1_F4.1_T4.2_[T11C] (ssRNA)
RNA: UCUCUUAUUAUAUAUUAGCUCUCUU
B16: Id_ii_S1_P4E.3_K4.2_C4.2_[C-2A]_H4.2_A4.1_F4.1_T4.2_[G10A]_[T11A] (ssRNA)
RNA: UCUCUUAUUAUAUAUUAAAUCUCUU
B17: Id_ii_S1_P4E.3_K4.2_C4.2_[C-2A]_[T-1A]_H4.2_A4.1_F4.1_T4.2_[T11C] (ssRNA)
RNA: UCUCUUAAUAUAUAUUAGCUCUCUU
B18: Id_ii_S1_P4E.3_K4.2_C4.2_[T-1A]_H4.2_A4.1_F4.1_T4.2_[T11A] (ssRNA)
RNA: UCUCUUCAUAUAUAUUAGAUCUCUU
B19: Id_ii_S1_P4E.3_K4.2_C4.2_[C-2A]_H4.2_A4.1_F4.1_T4.2_[G10A] (ssRNA)
RNA: UCUCUUAUUAUAUAUUAAUUCUCUU
B20: Id_ii_S1_P4E.3_K4.2_C4.2_[T-1A]_H4.2_A4.1_F4.1_T4.2_[G10C]_[T11G] (ssRNA)
RNA: UCUCUUCAUAUAUAUUACGUCUCUU
B21: Id_ii_S1_P4E.3_K4.2_C4.2_[C-2A]_H4.2_A4.1_F4.1_T4.2_[G10T]_[T11C] (ssRNA)
RNA: UCUCUUAUUAUAUAUUAUCUCUCUU
B22: Ib_S1_P4E.1_K4.1_C4.1_H4.1_[A4G]_A4.1_[T7G]_F4.1_T4.1 (ssRNA)
RNA: UCUCUUUGUGUAGUAUCUCUU
B23: Id_ii_S1_P4E.3_K4.2_C4.2_[T-1C]_H4.2_A4.1_F4.1_T4.2_[G10A]_[T11G] (ssRNA)
RNA: UCUCUUCCUAUAUAUUAAGUCUCUU
B24: Id_ii_S1_P4E.3_K4.2_C4.2_[C-2A]_H4.2_A4.1_F4.1_T4.2_[G10A]_[T11C] (ssRNA)
RNA: UCUCUUAUUAUAUAUUAACUCUCUU
B25: Id_ii_S1_P4E.3_K4.2_C4.2_[C-2A]_[T-1C]_H4.2_A4.1_F4.1_T4.2_[G10C]_[T11C] (ssRNA)
RNA: UCUCUUACUAUAUAUUACCUCUCUU
B26: Id_ii_S1_P4E.3_K4.2_C4.2_[C-2A]_[T-1A]_H4.2_A4.1_F4.1_T4.2_[G10A]_[T11C] (ssRNA)
RNA: UCUCUUAAUAUAUAUUAACUCUCUU
B27: Id_ii_S1_P4E.3_K4.2_C4.2_[C-2A]_H4.2_A4.1_F4.1_T4.2_[G10T]_[T11A] (ssRNA)
RNA: UCUCUUAUUAUAUAUUAUAUCUCUU
B28: Id_ii_S1_P4E.3_K4.2_C4.2_[T-1A]_H4.2_A4.1_F4.1_T4.2_[T11C] (ssRNA)
RNA: UCUCUUCAUAUAUAUUAGCUCUCUU
B29: Id_ii_S1_P4E.3_K4.2_C4.2_[T-1C]_H4.2_A4.1_F4.1_T4.2_[G10C]_[T11C] (ssRNA)
RNA: UCUCUUCCUAUAUAUUACCUCUCUU
B30: Id_ii_S1_P4E.3_K4.2_C4.2_[T-1A]_H4.2_A4.1_F4.1_T4.2_[G10C] (ssRNA)
RNA: UCUCUUCAUAUAUAUUACUUCUCUU
B31: Id_ii_S1_P4E.3_K4.2_C4.2_[C-2A]_[T-1C]_H4.2_A4.1_F4.1_T4.2_[G10T]_[T11A] (ssRNA)
RNA: UCUCUUACUAUAUAUUAUAUCUCUU

What follows are binders tested against T1, PUF4 RNA-binding domain (assay: Mg; RNA-MaP; 20 mM Na-HEPES pH 7.4, 30 mM KOAc, 0.75 mM MgCl2, 0.1% Tween-20, 5% glycerol, 0.1 mg/mL BSA, 2 mM DTT; 25 C; 0.0125-409.6 nM protein). Details: tags: N-His6-TEV cleaved; C-SNAP kept, Cy3B-labelled; label: tethered on chip by stalled RNA polymerase.

Compared with B1, B2 is 3.4-fold lower in Kd: 87.3 nM for the first, 25.9 nM for the second. The second binds more tightly here.

B3 and B4 are within 1.5-fold of each other in Kd: 9.29 nM for the first, 9.53 nM for the second.

B5 and B6 are within 1.5-fold of each other in Kd: 39 nM for the first, 30.4 nM for the second.

Compared with B7, B8 is 4.5-fold lower in Kd: 37.5 nM for the first, 8.31 nM for the second. The second binds more tightly here.

Going from B9 to B10, the Kd falls from 370 nM to 29.3 nM (13-fold).

First: B11
Second: B12
The Kd of the first is 2.7-fold higher: 54.1 nM for the first, 20.1 nM for the second.

First: B13
Second: B14
The Kd of the first is 1.6-fold lower: 27.1 nM for the first, 42.9 nM for the second. The first binds more tightly here.

Compared with B15, B16 is 4.6-fold higher in Kd: 15.7 nM for the first, 72.4 nM for the second. The first binds more tightly here.

First: B17
Second: B18
The Kd of the first is 1.9-fold higher: 38.8 nM for the first, 19.9 nM for the second. The second binds more tightly here.

B19 and B20 are within 1.5-fold of each other in Kd: 25.6 nM for the first, 34.8 nM for the second.

B21 and B22 are within 1.5-fold of each other in Kd: 18.9 nM for the first, 18.3 nM for the second.

Compared with B23, B24 is 2-fold lower in Kd: 87.6 nM for the first, 44.1 nM for the second.

Compared with B25, B26 is 12-fold higher in Kd: 38.3 nM for the first, 442 nM for the second.

First: B27
Second: B28
The Kd of the first is 3.2-fold higher: 26.5 nM for the first, 8.31 nM for the second. The second binds more tightly here.

B29 and B30 are within 1.5-fold of each other in Kd: 28 nM for the first, 21 nM for the second.

B31 gave a Kd of 27.2 nM.

Reference: paper PMC9352680, “A comprehensive thermodynamic model for RNA binding by the Saccharomyces cerevisiae Pumilio protein PUF4”
